Test results: paper PMC4043945, “Biochemical and Molecular Characterization of Barley Plastidial ADP-Glucose Transporter (HvBT1)” (PLoS ONE, 2014)

Assays:
[1] = substrate: Nc1ncnc2c1ncn2[C@@H]1O[C@H](COP(=O)(O)OP(=O)(O)O[C@H]2O[C@H](CO)[C@@H](O)[C@H](O)[C@H]2O)[C@@H](O)[C@H]1O; test: radiolabelled uptake (Michaelis-Menten) in intact E. coli cells expressing HvBT1; empty-plasmid control subtracted; format: cell-based, Hordeum vulgare
[2] = substrate: Nc1ncnc2c1ncn2[C@@H]1O[C@H](COP(=O)(O)OP(=O)(O)O)[C@@H](O)[C@H]1O; test: radiolabelled uptake (Michaelis-Menten) in intact E. coli cells expressing HvBT1; also counter-exchange and reduction of ADP-Glc uptake; format: cell-based, Hordeum vulgare; details: counter-exchange substrate with ADP-glucose

B1: HvBT1 (barley plastidial ADP-glucose transporter) (Hordeum vulgare subsp. vulgare) (protein)
chain: MAAAMAATTMVTKNNGGSLAMDKKNWFFRPAPEVAFSWSSQPESRSLEFPRRALFASVGLSLSHDGKARPADDVAHQLAAAGDAGVQQAQKAKKAKKQQLGLRKVRVKIGNPHLRRLVSGAIAGAVSRTFVAPLETIRTHLMVGSSGADSMGGVFRWIMRTEGWPGLFRGNAVNVLRVAPSKAIEHFTYDTAKKYLTPEAGEPAKVPIPTPLVAGALAGVASTLCTYPMELVKTRLTIEKDVYDNLLHAFVKIVRDEGPGELYRGLAPSLIGVVPYAAANFYAYETLRGAYRRASGKEEVGNVPTLLIGSAAGAIASTATFPLEVARKQMQVGAVGGRQVYKNVLHAMYCILNKEGAAGLYRGLGPSCIKLMPAAGISFMCYEACKKILVDDKQDGEPQDQEETETGHTQGQAAPKSPNANGDRP
notes: codon-optimized ORF in pET16b with N-terminal His-tag, expressed in E. coli C43 (DE3)
- Km [1]: 614.5 µM
- Km [2]: 334.7 µM
